Reference: US20050222029A1 (MYRIAD GENETICS, published 2005)

How the values were obtained:
Experiment in all cases: yeast two-hybrid
[1] = molecular target: T1, GTPase-activiating protein 1 1419-1657 (human, UniProt P46940 1419-1657)
T1 construct: prey (Gal4 AD-HA fusion); also called IQGAP1; IQGAP
T1 sequence (looked up): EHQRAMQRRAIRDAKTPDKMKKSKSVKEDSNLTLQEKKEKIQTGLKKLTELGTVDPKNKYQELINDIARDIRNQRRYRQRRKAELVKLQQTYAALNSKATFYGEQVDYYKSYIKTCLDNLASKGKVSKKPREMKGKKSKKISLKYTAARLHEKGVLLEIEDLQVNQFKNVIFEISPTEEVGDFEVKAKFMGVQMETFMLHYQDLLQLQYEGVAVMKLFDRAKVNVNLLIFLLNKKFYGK

Intersection 1 387-611 = molecular target: T2, Intersection 1 387-611 (human, UniProt Q15811 387-611)
T2 construct: prey (Gal4 AD-HA fusion); also called Intersectin 1; ITSN1
T2 sequence (looked up): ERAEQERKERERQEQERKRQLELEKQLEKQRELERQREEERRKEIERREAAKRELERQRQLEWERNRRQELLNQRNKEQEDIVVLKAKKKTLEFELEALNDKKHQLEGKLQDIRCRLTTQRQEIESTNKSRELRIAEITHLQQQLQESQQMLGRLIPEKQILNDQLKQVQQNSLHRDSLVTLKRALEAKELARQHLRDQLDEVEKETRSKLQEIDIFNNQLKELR

Hook2 protein 201-559 = molecular target: T3, Hook2 protein 201-559 (human, UniProt Q96ED9 201-559)
T3 construct: prey (Gal4 AD-HA fusion)
T3 sequence (looked up): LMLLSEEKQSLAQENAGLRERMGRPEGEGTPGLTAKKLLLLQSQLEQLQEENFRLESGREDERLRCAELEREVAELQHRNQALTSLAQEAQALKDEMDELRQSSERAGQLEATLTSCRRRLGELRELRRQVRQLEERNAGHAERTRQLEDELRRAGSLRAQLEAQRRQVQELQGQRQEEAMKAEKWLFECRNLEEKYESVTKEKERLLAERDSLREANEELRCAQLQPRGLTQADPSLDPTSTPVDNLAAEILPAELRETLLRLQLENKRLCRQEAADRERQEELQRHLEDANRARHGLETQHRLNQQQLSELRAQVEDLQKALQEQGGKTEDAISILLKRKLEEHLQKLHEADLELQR

[2] = molecular target: T4, GTPase-activiating protein 1 1392-1657 (human, UniProt P46940 1392-1657)
T4 construct: prey (Gal4 AD-HA fusion); also called IQGAP1; IQGAP
T4 sequence (looked up): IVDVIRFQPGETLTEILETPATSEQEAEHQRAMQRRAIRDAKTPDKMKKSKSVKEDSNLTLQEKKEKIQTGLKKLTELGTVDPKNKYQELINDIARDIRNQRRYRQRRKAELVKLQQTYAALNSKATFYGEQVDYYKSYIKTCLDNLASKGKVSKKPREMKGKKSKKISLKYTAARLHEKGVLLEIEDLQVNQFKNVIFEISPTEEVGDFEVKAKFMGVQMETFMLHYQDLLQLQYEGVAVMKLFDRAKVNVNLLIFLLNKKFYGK

Keratin 8 147-406 = molecular target: T5, Keratin 8 147-406 (human, UniProt P05787 147-406)
T5 construct: prey (Gal4 AD-HA fusion)
T5 sequence (looked up): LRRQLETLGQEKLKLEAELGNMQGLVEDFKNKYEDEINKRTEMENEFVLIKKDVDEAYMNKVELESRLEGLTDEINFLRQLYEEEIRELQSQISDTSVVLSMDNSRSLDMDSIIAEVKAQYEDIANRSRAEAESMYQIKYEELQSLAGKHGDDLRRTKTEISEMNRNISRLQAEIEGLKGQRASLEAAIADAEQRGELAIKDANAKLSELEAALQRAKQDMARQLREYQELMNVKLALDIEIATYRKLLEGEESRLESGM

Hook2 protein 290-555 = molecular target: T6, Hook2 protein 290-555 (human, UniProt Q96ED9 290-555)
T6 construct: prey (Gal4 AD-HA fusion)
T6 sequence (looked up): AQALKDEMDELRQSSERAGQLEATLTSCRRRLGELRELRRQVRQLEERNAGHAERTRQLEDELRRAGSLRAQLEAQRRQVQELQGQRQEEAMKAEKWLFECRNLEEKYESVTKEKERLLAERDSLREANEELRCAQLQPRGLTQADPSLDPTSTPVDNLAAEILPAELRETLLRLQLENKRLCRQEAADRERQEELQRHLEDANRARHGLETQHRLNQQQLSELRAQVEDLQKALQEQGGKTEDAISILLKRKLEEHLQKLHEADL

[3] = molecular target: T7, Serum deprivation response 75-258 (human, UniProt O95810 75-258)
T7 construct: prey (Gal4 AD-HA fusion)
T7 sequence (looked up): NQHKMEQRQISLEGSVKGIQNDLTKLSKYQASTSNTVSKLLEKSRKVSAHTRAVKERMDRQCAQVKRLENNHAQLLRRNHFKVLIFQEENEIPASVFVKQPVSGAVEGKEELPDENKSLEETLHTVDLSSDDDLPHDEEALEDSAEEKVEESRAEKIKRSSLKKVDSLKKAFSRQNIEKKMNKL

[4] = molecular target: T8, Mitotic spindle coiled-coil related protein 723-1012 (human, UniProt Q96R06 723-1012)
T8 construct: prey (Gal4 AD-HA fusion)
T8 sequence (looked up): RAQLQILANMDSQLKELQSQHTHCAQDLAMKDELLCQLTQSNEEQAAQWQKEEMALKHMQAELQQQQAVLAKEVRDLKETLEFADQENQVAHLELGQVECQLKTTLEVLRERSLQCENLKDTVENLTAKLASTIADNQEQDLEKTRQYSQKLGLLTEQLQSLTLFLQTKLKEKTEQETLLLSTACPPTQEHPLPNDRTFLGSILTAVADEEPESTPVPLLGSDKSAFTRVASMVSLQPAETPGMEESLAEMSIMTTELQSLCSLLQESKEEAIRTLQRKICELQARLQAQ

binding result [1]: binds | binding result (Intersection 1 387-611): binds | binding result (Hook2 protein 201-559): binds | binding result [2]: binds | binding result (Keratin 8 147-406): binds | binding result (Hook2 protein 290-555): binds | binding result [3]: binds | binding result [4]: binds
B1: Tumor Suppressor (TSG101) 240-391 (other, human, UniProt Q99816 240-390, looked up)
chain: WRMKEEMDRAQAELNALKRTEEDLKKGHQKLEEMVTRLDQEVAEVDKNIELLKKKDEELSSALEKMENQSENNDIDEVIIPTAPLYKQILNLYAEENAIEDTIFYLGEALRRGVIDLDVFLKHVRLLSRKQFQLRALMQKARKTAGLSDLY
notes: range 240-391; bait (Gal4 DBD fusion); also called TSG101 240-390
